B1: TRIM39 (parent)
chain: CKACITRWWEDLERDFPCPVCRKT

Variants of: B1
Assay: protein stability index of a GFP-peptide fusion (GPS, HEK-293T) (PSI 1-6); higher = more stable
Settings: c terminus: a fixed tail appended
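Further: lentivirally expressed fusions sorted by FACS into six bins by GFP to DsRed ratio, PSI derived from sequencing read proportions per bin multiplied by bin number.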

Row | Variant | protein stability index
1 | CKASITRWWEDLERDFPCPVCRKT [C4S] | 2.07
2 | CKALITRWWEDLERDFPCPVCRKT [C4L] | 1.63
3 | CKAIITRWWEDLERDFPCPVCRKT [C4I] | 1.59
4 | CKAGITRWWEDLERDFPCPVCRKT [C4G] | 1.65
5 | CKAEITRWWEDLERDFPCPVCRKT [C4E] | 1.88
6 | CKAWITRWWEDLERDFPCPVCRKT [C4W] | 1.75
7 | CKAVITRWWEDLERDFPCPVCRKT [C4V] | 2.19
8 | CKAQITRWWEDLERDFPCPVCRKT [C4Q] | 2.41
9 | CKAHITRWWEDLERDFPCPVCRKT [C4H] | 3.14
10 | CKANITRWWEDLERDFPCPVCRKT [C4N] | 2.35
11 | CKACITRWWEDLERDFPCPVCSKT [R22S] | 3.56
12 | CKACITRWWEDLERDFPCPVCYKT [R22Y] | 3.58
13 | CKACITRWWEDLERDFPCPVCLKT [R22L] | 3.81
14 | CKACITRWWEDLERDFPCPVCGKT [R22G] | 4.6
15 | CKACITRWWEDLERDFPCPVCAKT [R22A] | 4.36
16 | CKACITRWWEDLERDFPCPVCCKT [R22C] | 3.74
17 | CKACITRWWEDLERDFPCPVCNKT [R22N] | 4.22
18 | CKACITRWWEDLERDFPCPVCVKT [R22V] | 3.04
19 | CKACITRWWEDLERDFPPPVCRKT [C18P] | 2.25
20 | CKACITRWWEDLERDFPHPVCRKT [C18H] | 1.54
21 | CKACITRWWEDLERDFPNPVCRKT [C18N] | 1.24
22 | CKACITRWWEDLERDFPLPVCRKT [C18L] | 2.41
23 | CKACITRWWEDLERDFPYPVCRKT [C18Y] | 2.02
24 | CKACITRWWEDLERDFPKPVCRKT [C18K] | 1.38

Row | Variant | protein stability index
25 | CKACITRWWEDLERDFPVPVCRKT [C18V] | 1.28
26 | CKACITRWWEDLERDFPTPVCRKT [C18T] | 1.39
27 | CKACITRTWEDLERDFPCPVCRKT [W8T] | 4.09
28 | CKACITRGWEDLERDFPCPVCRKT [W8G] | 4.8
29 | CKACITREWEDLERDFPCPVCRKT [W8E] | 4.73
30 | CKACITRFWEDLERDFPCPVCRKT [W8F] | 4.17
31 | CKACITRQWEDLERDFPCPVCRKT [W8Q] | 4.83
32 | CKACITRYWEDLERDFPCPVCRKT [W8Y] | 4.22
33 | CKACITRRWEDLERDFPCPVCRKT [W8R] | 4.62
34 | CKACITRDWEDLERDFPCPVCRKT [W8D] | 4.42
35 | CKACITRCWEDLERDFPCPVCRKT [W8C] | 4.15
36 | CKACITRWWNDLERDFPCPVCRKT [E10N] | 4.11
37 | CKACITRWWDDLERDFPCPVCRKT [E10D] | 4.11
38 | CKACITRWWSDLERDFPCPVCRKT [E10S] | 3.78
39 | CKACITRWWIDLERDFPCPVCRKT [E10I] | 3.65
40 | CKACITRWWADLERDFPCPVCRKT [E10A] | 4.08
41 | CKACITRWWEDLRRDFPCPVCRKT [E13R] | 3.46
42 | CKACITRWWEDLKRDFPCPVCRKT [E13K] | 2.98
43 | CKACITRWWEDLHRDFPCPVCRKT [E13H] | 3.23
44 | CKACITRWWEDLDRDFPCPVCRKT [E13D] | 3.7
45 | CKACITRWWEDLIRDFPCPVCRKT [E13I] | 3.08
46 | CKACITRWWEDLARDFPCPVCRKT [E13A] | 3.36
47 | CKACITRWWEDLPRDFPCPVCRKT [E13P] | 3.61
48 | CKACIPRWWEDLERDFPCPVCRKT [T6P] | 3.5

Row | Variant | protein stability index
49 | CKACIVRWWEDLERDFPCPVCRKT [T6V] | 2.71
50 | CKACIDRWWEDLERDFPCPVCRKT [T6D] | 4.27
51 | CKACITRWWEDLERDFPCPVSRKT [C21S] | 1.68
52 | CKACITRWWEDLERDFPCPVKRKT [C21K] | 2.19
53 | CKACITRWWEDLERDFPCPVARKT [C21A] | 2.18
54 | CKACITRWWEDLERDFPCPVYRKT [C21Y] | 3.73
55 | CKACITRWWEDLERDFPCPVPRKT [C21P] | 1.11
56 | CKACITRWWEDLERDFPCPVIRKT [C21I] | 1.38
57 | CKACITRWWEDLERDFPCPVTRKT [C21T] | 1.56
58 | CKACITRWWEDLERDFPCPVERKT [C21E] | 1.32
59 | CKACITRWWEDLERDHPCPVCRKT [F16H] | 4.1
60 | CKACITRWWEDLERDGPCPVCRKT [F16G] | 4.05
61 | CKACITRWWEDLERDIPCPVCRKT [F16I] | 3.78
62 | CKACITRWWEDLERDKPCPVCRKT [F16K] | 4.48
63 | CKACITRWWEDLERDPPCPVCRKT [F16P] | 3.76
64 | CKACITRWWEDLERDSPCPVCRKT [F16S] | 4.27
65 | CKACITRWWEDLERDWPCPVCRKT [F16W] | 3.6
66 | CKACITRWWEDLERDFPCPVCRKY [T24Y] | 3.74
67 | CKACITRWWEDLERDFPCPVCRKR [T24R] | 3.67
68 | CKACITRWWEDLERDFPCPVCRKC [T24C] | 2.75
69 | CKACITRWWEDLERDFPCPVCRKS [T24S] | 4.03
70 | CKACITRWWEDLERDFPCPVCRKN [T24N] | 3.61
71 | CKACITRWWEDLERDFPCPVCRKL [T24L] | 3.78
72 | CKACITRWWEDLERDFPCPVCRKF [T24F] | 3.03

Row | Variant | protein stability index
73 | CFACITRWWEDLERDFPCPVCRKT [K2F] | 3.34
74 | CVACITRWWEDLERDFPCPVCRKT [K2V] | 3.53
75 | CEACITRWWEDLERDFPCPVCRKT [K2E] | 4.48
76 | CHACITRWWEDLERDFPCPVCRKT [K2H] | 4.08
77 | CQACITRWWEDLERDFPCPVCRKT [K2Q] | 4.08
78 | CMACITRWWEDLERDFPCPVCRKT [K2M] | 3.69
79 | CTACITRWWEDLERDFPCPVCRKT [K2T] | 4.05
80 | CKACITRWWEDLERDFPCPVCRST [K23S] | 3.63
81 | CKACITRWWEDLERDFPCPVCRHT [K23H] | 3.27
82 | CKACITRWWEDLERDFPCPVCRTT [K23T] | 3.31
83 | CKACITRWWEDLERDFPCPVCRQT [K23Q] | 4.58
84 | CKACITRWWEDLERDFPCPVCRGT [K23G] | 3.38
85 | CKACITRWWEDLERDFPCPVCRWT [K23W] | 2.95
86 | CKACITRWWEDLERDFPCPVCRNT [K23N] | 3.95
87 | CKTCITRWWEDLERDFPCPVCRKT [A3T] | 4.85
88 | CKRCITRWWEDLERDFPCPVCRKT [A3R] | 3.53
89 | CKDCITRWWEDLERDFPCPVCRKT [A3D] | 4.04
90 | CKHCITRWWEDLERDFPCPVCRKT [A3H] | 3.67
91 | CKKCITRWWEDLERDFPCPVCRKT [A3K] | 3.06
92 | CKGCITRWWEDLERDFPCPVCRKT [A3G] | 4.09
93 | CKWCITRWWEDLERDFPCPVCRKT [A3W] | 2.87
94 | CKMCITRWWEDLERDFPCPVCRKT [A3M] | 3.35
